Assay results reported in paper doi:10.1101/2022.11.08.515461 (bioRxiv, 2022).

Tests used:
[1] = target: yeast dynein_(MOTOR) (wild-type; ZZ-TEV-dynein331-HALO) (budding yeast) (UniProt P36022); assay: mass photometry
[2] = target: yeast dynein_(MOTOR)^MT-U (microtubule-unbound mutant of the motor domain) (budding yeast | T. thermophilus) (UniProt P34945); assay: mass photometry
mass photometry = target: the molecule itself; assay: mass photometry
[3] = target: human dynein_(MOTOR)^MT-B (microtubule-bound mutant of the motor domain) (human | T. thermophilus); assay: mass photometry
[4] = target: human dynein_(MOTOR)^MT-U (microtubule-unbound mutant of the motor domain) (human | T. thermophilus); assay: mass photometry
[5] = target: human dynein_(MOTOR)^MT-U (microtubule-unbound mutant of the motor domain) (human | T. thermophilus); assay: cryo-EM structure
[6] = target: human dynein_(MOTOR) (wild-type motor domain, residues 1458-4646) (human, UniProt Q14204 1458-4646); assay: mass photometry
human dynein_(MOTOR) (wild-type motor domain, residues 1458-4646), sequence (Q14204 1458-4646): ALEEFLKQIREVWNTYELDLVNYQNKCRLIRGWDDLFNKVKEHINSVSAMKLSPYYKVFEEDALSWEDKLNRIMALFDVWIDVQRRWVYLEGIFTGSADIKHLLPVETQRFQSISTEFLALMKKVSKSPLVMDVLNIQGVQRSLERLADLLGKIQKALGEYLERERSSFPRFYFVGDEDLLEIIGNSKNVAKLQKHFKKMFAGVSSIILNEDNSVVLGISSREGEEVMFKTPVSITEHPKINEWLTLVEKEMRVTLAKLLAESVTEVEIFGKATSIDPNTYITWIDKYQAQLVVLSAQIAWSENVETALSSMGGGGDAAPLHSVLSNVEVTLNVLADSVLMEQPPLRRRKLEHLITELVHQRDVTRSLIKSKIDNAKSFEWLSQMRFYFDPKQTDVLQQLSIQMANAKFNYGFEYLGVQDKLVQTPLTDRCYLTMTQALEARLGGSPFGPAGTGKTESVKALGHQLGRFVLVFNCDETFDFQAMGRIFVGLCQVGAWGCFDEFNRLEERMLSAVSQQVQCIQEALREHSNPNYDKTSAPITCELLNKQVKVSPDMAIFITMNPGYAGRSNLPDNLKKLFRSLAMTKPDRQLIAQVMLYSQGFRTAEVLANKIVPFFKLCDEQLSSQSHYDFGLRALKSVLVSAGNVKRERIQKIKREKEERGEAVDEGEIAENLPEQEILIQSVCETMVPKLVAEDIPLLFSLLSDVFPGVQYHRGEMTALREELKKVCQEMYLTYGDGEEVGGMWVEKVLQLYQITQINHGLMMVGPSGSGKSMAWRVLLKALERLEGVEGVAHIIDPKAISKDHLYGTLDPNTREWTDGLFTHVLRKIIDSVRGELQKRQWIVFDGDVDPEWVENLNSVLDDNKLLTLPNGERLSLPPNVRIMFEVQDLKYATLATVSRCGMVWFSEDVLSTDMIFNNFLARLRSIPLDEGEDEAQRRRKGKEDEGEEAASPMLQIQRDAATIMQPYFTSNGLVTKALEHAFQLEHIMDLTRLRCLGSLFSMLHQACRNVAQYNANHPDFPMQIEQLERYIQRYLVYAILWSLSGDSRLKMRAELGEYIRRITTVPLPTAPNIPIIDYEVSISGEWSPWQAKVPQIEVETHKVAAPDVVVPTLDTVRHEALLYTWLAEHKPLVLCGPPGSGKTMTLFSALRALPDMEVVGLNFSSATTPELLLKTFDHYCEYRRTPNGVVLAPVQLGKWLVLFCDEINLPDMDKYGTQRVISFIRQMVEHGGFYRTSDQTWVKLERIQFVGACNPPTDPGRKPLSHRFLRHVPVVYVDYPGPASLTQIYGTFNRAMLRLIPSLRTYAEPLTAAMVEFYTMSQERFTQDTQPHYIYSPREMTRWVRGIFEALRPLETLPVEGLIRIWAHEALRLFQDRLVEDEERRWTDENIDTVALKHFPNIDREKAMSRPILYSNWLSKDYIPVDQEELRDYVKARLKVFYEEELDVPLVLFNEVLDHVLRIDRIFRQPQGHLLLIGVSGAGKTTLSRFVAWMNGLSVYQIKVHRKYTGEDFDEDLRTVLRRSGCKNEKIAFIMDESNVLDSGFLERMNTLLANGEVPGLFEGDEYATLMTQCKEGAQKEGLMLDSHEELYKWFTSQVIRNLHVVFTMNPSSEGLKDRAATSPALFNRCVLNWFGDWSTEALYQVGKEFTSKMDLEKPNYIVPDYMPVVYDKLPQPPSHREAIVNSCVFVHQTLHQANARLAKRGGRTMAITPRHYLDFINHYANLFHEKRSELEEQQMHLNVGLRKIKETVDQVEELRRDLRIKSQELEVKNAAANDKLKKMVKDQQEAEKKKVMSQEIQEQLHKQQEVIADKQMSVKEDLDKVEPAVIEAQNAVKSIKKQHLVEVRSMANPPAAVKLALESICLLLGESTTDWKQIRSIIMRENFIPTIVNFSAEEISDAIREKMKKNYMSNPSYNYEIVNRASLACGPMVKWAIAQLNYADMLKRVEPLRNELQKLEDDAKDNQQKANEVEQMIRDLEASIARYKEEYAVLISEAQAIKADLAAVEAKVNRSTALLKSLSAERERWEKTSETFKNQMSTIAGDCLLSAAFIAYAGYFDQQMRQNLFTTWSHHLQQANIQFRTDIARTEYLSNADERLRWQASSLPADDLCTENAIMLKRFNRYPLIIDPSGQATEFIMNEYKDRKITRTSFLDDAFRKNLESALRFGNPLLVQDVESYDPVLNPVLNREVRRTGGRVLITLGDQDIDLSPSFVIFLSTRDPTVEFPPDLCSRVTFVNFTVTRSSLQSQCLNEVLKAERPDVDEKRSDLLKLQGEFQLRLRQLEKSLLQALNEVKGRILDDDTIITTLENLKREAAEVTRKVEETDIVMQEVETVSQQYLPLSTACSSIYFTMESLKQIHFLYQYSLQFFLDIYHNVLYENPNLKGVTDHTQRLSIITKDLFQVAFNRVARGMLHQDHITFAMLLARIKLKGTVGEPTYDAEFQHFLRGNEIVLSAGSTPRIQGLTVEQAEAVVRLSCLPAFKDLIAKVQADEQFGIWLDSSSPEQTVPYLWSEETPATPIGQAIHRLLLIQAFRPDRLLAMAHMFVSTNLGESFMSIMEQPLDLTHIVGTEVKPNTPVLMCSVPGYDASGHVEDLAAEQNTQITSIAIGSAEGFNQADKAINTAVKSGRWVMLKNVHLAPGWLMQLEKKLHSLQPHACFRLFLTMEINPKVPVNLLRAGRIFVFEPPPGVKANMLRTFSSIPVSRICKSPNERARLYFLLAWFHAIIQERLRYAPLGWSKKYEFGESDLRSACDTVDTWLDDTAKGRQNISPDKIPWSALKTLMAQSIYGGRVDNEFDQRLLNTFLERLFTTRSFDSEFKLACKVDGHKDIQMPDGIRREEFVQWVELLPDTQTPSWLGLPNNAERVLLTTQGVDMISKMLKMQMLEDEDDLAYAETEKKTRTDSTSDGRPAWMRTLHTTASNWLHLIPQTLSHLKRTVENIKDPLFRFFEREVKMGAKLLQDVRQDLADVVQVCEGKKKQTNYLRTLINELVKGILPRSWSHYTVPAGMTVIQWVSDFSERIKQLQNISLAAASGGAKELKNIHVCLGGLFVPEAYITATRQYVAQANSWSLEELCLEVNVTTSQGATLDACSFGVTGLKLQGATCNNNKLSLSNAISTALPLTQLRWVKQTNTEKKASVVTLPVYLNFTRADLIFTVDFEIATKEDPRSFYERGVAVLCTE

yeast dynein_(MOTOR)^MT-U (microtubule-unbound mutant of the motor domain) (budding yeast | T. thermophilus), sequence (P34945 whole entry, change not shown, the tested form may be a part): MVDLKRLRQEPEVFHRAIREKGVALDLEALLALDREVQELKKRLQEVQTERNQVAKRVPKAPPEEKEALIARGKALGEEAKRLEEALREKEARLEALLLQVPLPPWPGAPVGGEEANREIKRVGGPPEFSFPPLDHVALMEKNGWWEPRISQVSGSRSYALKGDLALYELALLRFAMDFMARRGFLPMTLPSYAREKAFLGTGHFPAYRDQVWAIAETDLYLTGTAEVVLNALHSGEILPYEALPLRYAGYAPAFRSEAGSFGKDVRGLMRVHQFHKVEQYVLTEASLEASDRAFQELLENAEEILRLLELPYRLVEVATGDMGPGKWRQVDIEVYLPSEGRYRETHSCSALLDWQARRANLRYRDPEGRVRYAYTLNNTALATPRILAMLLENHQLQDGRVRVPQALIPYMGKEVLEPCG

| Binder | N of the second species (∼890 kDa) (dynein monomers per Pac1 dimer) [1] | stoichiometry N (Pac1 dimer per dynein (MOTOR) monomer) [2] | stoichiometry N (mass photometry) | stoichiometry N (LIS1 dimer per dynein (MOTOR) monomer) [3] | fold LIS1-binding affinity against dynein (MOTOR)^MT-B [4] [fold] | stoichiometry N (LIS1 dimer per dynein (MOTOR) monomer) [4] | percent of particles with 1 LIS1 bound (3D classification) [5] [%] | percent of particles with 2 LIS1 bound (3D classification) [5] [%] | percent of particles with “1.5” LIS1 bound (3D classification) [5] [%] | stoichiometry N ([5]; scale: LIS1 WD40 beta-propellers per dynein motor) | binding result [6] |
| --- | --- | --- | --- | --- | --- | --- | --- | --- | --- | --- | --- |
| Pac1-SNAP (natural protein, JF646-SNAP-tag ligand on the SNAP tag (fluorescent labelling)) MTNWQQQLPLTDTQKNELDKSVLRYLNWNYKQTVRHEHAQDYESVRHAIVTLSGFLLQESVDRQEFISNNDTSNESMVDIDELLLPKKWNSIVRLQKKIIELEQNTETLVSQIKDLNTQVSELAQFKPTTSNGTSAHNVLKWIPRNLPSCLINVESSVTSVKLHPNLPIVFVATDHGKLYAFDLFNYTIPLASLQSHTKAITSMDVLFTNYTNSSKKNYLVIVTASKDLQIHVFKWVSEECKFQQIRSLLGHEHIVSAVKIWQKNNDVHIASCSRDQTVKIWDFHNGWSLKTFQPHSQWVRSIDVLGDYIISGSHDTTLRLTHWPSGNGLSVGTGHEFPIEKVKFIHFIEDSPEIRFRTPSTDRYKNWGMQYCVSASRDRTIKIWEIPLPTLMAHRAPIPNPTDSNFRCVLTLKGHLSWVRDISIRGQYLFSCADDKSVRCWDLNTGQCLHVWEKLHTGFVNCLDLDVDFDSNVTPRQMMVTGGLDCKSNVFMR | 2 | 1 | 2 |  |  |  |  |  |  |  |  |
| human LIS1-SNAP (from pFastBac:8His-ZZ-TEV-LIS1-SNAPf) (natural protein) MVLSQRQRDELNRAIADYLRSNGYEEAYSVFKKEAELDVNEELDKKYAGLLEKKWTSVIRLQKKVMELESKLNEAKEEFTSGGPLGQKRDPKEWIPRPPEKYALSGHRSPVTRVIFHPVFSVMVSASEDATIKVWDYETGDFERTLKGHTDSVQDISFDHSGKLLASCSADMTIKLWDFQGFECIRTMHGHDHNVSSVAIMPNGDHIVSASRDKTIKMWEVQTGYCVKTFTGHREWVRMVRPNQDGTLIASCSNDQTVRVWVVATKECKAELREHEHVVECISWAPESSYSSISEATGSETKKSGKPGPFLLSGSRDKTIKMWDVSTGMCLMTLVGHDNWVRGVLFHSGGKFILSCADDKTLRVWDYKNKRCMKTLNAHEHFVTSLDFHKTAPYVVTGSVDQTVKVWECR |  |  |  | 1 | 2 | 1 | 36.2 | 29.3 | 34.4 | 2 | binds |
